“And” between values parts separate entries of the source, which are not always exact repeats. Equal entries are not always repeated. *1 amine or outer side, *2 acyl side, *3 side chain or, on linkers, in order; H or OH if unused. Bridges are numbered along the chain shown (N, C = ends). [ ]: non-standard residue; d: D form. The star is where a group is joined. DOTA = O=C(O)CN1CCN(CC(=O)O)CCN(CC(=O)*)CCN(CC(=O)O)CC1; N(2-mercaptoethyl)Gly = O=C(CN(CCS[*:3])[*:1])[*:2]; Aoc = NCCCCCCCC(=O)O

One assay deals with T1, hSSTR-4 (Homo sapiens, UniProt P31391).
T1 construct: host or cells: Chem-1 (Rat ChemiSCREEN) cells, membrane preparation
The assay can be described thus: Radioligand binding, displacement of 125I-Tyr11-SRIF-14. The conditions noted are these: hSSTR-4. An excerpt:
(§1) The binding to human cloned receptors SSTR-1, or SSTR-2 or SSTR-3 evaluated in stable and selective transfected CHO (Chinese Hamster Ovary) cells and binding to STSR-4 and SSTR-5 in stable and selective transfected Chem-1 (Rat ChemiSCREEN) cells. […] The binding reactions were filtered, the filters were washed, and the bound radioactivity was counted using a gamma counter.
(§2) The following table depicts the conditions of binding assay to each of the somatostatin receptors used for the evaluations of binding affinities of the tested peptides. All assays were performed by quantitation method of radioligand binding under 25° C. The vehicle was 1% DMSO, the incubation buffer was 25 mM HEPES, pH 7.4, 5 mM MgCl2, 1 mM CaCl2, 0.1% BSA. […] The significance criteria were >50% of max inhibition. […] This specific binding data used for calculation of Bmax values which is the concentration of each of the expressed cloned receptor in its transfected cell system.
(§3) The Results of IC50 values were determined by a non-linear, least squares regression analysis using MathIQ™ (ID Business Solutions Ltd., UK). […] The Hill coefficient (nH), defining the slope of the competitive binding curve, was calculated using MathIQ™.

The target of another assay is SSTR5 (Homo sapiens, UniProt P35346). Described as above. Further details: host or cells: Chem-1 (Rat ChemiSCREEN) cells, membrane preparation. The note with it: hSSTR-5.
From the text: as §1, §2, §3

Another assay has as its target SSTR1 (Homo sapiens, UniProt P30872). The assay is described as above. The conditions noted are these: hSSTR-1. The arrangement: host or cells: CHO (Chinese Hamster Ovary) cells, membrane preparation.
From the text: as §1, §2, §3

For the next assay, the target named is SSTR2 (Homo sapiens, UniProt P30874). The assay is described as above. The arrangement: host or cells: CHO (Chinese Hamster Ovary) cells, membrane preparation. The conditions noted are these: hSSTR-2.
From the text: as §1, §2, §3

In the next assay the target is SSTR3 (Homo sapiens, UniProt P32745). Described as above. The arrangement: host or cells: CHO (Chinese Hamster Ovary) cells, membrane preparation. The note with it: for % displacement of [^125I] Tyr^11-SRIF-14: hSSTR-3.
From the text: as §1, §2, §3

The test system of the next assay is SSTR3-tGFP-U2OS cells. Put plainly: Cellular internalization of 177Lu radiolabeled compounds. The class given is cell-based, human. The conditions noted are these: 4 h. How it is done:
In order to evaluate the cellular internalization of the ^177Lu radiolabeled SEQ ID NO: 6 in comparison to SEQ ID NO: 19 in SSTR3 transfected human cancer cell line to predict the tumor uptake of the radiolabeled compounds, the following example was performed.
Comparative SSTR3 receptor mediated internalization, was determined by incubation of the cultivate cancer cells with the ^177Lu radiolabeled compounds and determination of cellular uptake following washes of the cell culture. To evaluate the internalization as a receptor mediated process, the same experiments were performed in the presence of high concentration of cold SSTR3 ligands.
U2OS cells grow as a monolayer at +37° C. in a humidified atmosphere (5% CO2, 95% air). U2OS cancer cells are adherent to plastic flasks. For experimental use, these cancer cells are detached from the culture flask by a 5-minute treatment with trypsin-versene, in Hanks' medium without calcium or magnesium and neutralized by addition of complete culture medium.
The assay was performed as follows: Transfected human osteosarcoma cells SSTR3-tGFP-U2OS were plated in 6 well plate, 24 hours before the assay to have 80-90% confluency at the day of the assay. 30 minutes before the assay, medium was removed, and cells were washed with tempered Dulbecco's Phosphate Buffered Saline (DPBS, Sigma) and fresh medium (250 μL) is added. For total cellular uptake, 20 nM of the radioligand SEQ ID NO: 6 or SEQ ID NO: 19 were diluted in cell medium (250 μL) added to each well, in triplicate (final radioligand concentration: 10 nM). For non-specific binding, 20 μM (1000 in excess) of cold SEQ ID NO: 4 or cold SEQ ID NO: 6 or SEQ ID NO: 1 and 20 nM of ^177Lu-DOTA-PTR-58 radioligand solution in cell medium (250 μL) were added to each well, in triplicate (final cold peptide concentration: 10 μM; final radioligand concentration: 10 nM). The plates were incubated for 4 hours at +37° C. (air containing 5% CO2, humidified atmosphere). At the end of incubation, the plates were placed on ice to stop any internalization process. The medium, containing the free radioligand fraction, was collected and the cells were washed twice (2×750 μL) with ice-cold DPBS. The medium and the PBS washes were collected in the same vial from each well (final volume […]). The radioactivity of the cell pellets was counted by gamma counter and represents the cellular uptake as percentage of the administrated radioactivity. The radioactivity readouts of the wash-media were used for mass balance.

T1 sequence (P31391 whole entry): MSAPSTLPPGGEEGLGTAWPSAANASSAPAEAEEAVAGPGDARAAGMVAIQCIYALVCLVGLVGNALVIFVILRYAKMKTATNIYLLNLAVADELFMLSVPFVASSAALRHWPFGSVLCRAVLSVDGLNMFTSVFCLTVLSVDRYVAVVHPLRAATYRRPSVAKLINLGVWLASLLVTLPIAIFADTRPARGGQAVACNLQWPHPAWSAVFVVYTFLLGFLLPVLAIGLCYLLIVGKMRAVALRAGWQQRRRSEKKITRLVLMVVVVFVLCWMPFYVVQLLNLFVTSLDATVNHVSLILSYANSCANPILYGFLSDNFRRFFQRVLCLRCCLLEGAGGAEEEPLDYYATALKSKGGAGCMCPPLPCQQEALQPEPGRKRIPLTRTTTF
Chain of SSTR2 (P30874 whole entry): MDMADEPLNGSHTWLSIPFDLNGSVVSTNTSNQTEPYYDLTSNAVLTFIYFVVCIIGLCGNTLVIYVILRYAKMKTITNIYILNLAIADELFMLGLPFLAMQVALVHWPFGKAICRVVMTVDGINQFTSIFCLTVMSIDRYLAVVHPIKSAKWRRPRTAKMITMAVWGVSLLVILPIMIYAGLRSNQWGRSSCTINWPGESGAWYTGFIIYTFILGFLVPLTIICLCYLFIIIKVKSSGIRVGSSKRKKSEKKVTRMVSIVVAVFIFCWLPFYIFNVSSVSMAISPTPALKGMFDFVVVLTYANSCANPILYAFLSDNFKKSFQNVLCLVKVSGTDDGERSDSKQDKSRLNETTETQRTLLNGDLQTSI
Chain of SSTR5 (P35346 whole entry): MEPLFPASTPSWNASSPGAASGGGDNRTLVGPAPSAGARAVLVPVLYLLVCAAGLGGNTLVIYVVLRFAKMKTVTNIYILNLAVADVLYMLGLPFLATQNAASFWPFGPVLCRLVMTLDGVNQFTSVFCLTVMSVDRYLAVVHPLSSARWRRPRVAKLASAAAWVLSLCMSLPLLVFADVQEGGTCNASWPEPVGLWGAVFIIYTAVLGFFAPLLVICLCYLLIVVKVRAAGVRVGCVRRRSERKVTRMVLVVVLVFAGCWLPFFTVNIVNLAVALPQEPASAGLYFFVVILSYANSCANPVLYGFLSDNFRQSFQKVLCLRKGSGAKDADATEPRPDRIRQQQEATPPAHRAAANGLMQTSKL
Chain of SSTR1 (P30872 whole entry): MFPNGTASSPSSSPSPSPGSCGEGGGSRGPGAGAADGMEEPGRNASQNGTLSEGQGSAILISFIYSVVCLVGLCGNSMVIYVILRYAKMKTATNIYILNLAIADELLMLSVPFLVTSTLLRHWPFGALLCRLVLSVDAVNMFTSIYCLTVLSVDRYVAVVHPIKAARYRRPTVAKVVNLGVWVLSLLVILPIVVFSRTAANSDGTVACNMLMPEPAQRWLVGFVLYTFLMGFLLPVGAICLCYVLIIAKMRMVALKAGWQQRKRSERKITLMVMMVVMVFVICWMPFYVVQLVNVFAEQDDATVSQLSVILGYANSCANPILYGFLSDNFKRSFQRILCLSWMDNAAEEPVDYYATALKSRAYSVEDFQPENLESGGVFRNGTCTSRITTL
Chain of SSTR3 (P32745 whole entry): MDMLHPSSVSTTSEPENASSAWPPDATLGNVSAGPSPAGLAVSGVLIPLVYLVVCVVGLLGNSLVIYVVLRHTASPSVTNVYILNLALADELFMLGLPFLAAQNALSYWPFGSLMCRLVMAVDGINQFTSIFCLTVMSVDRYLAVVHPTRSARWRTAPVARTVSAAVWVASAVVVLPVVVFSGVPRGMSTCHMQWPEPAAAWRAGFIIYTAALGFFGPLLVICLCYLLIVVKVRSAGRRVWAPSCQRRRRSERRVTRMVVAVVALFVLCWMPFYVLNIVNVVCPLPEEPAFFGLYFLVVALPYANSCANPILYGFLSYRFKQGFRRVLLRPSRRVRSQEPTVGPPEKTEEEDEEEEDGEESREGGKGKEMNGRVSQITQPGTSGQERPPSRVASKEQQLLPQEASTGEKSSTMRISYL

Take “DOTA-8-aminooctanoic acid-D-Phe^1-Arg^2-Cys^3-Phe4-D-Trp^5-Lys^6-Thr^7-Phe^8-NTEG^9-NH^2(cyclo 3-9) ({DOTA-Aoc}-[dF]RCF[dW]KTF[N(2-mercaptoethyl)Gly]-NH2; disulfide 3-9) [SEQ ID NO: 15]”: the “% displacement of [^125I] Tyr^11-SRIF-14” value is on record as 0(0) % in the assay with hSSTR-4 (at 1 nM (in brackets)); 0(0) % with hSSTR-4 (at 10 nM); 0(0) % in the assay with SSTR5 (at 1 nM (in brackets)); 0(0) % in the assay with SSTR5 (at 10 nM); 6% with SSTR1 (at 1 nM (in brackets)); 18% in the assay with SSTR1 (at 10 nM). In addition, the “% displacement of [^125I] Tyr^11-SRIF-14” value in the assay with SSTR2 (at 1 nM (in brackets)) was found to be 1%; with SSTR2 (at 10 nM), 0%; with SSTR3 (at 1 nM (in brackets)) it was 49%; with SSTR3 (at 10 nM), 87%.
Take “^177Lu -SEQ ID NO: 6 ({DOTA}-[dF]RCF[dW]KTF[N(2-mercaptoethyl)Gly]-NH2; disulfide 3-9; also: 177Lu complex of DOTA)”: the “% Total cellular uptake” value was 15.5 ± 0.28% and 22.1 ± 0.5% in the assay with SSTR3-tGFP-U2OS cells (177Lu radiolabeled, 10 nM, no blocking); 22% in the assay with SSTR3-tGFP-U2OS cells (177Lu radiolabeled, 10 nM, no blocking, listed as 177Lu radiolabeled SEQ ID NO. 6); 0.9 ± 0.02% in the assay on SSTR3-tGFP-U2OS cells (+ SEQ ID NO: 4 (cold 69/71Ga for blocking)); 0.6 ± 0.02% in the assay with SSTR3-tGFP-U2OS cells (+ SEQ ID NO: 6 (cold 175Lu for blocking)).
With “H-Arg^1-Gly^2-Asp^3-D-Phe^4-Arg^5-Cys^6-Phe^7-D-Trp^8-Lys^9-Thr^10-Phe^11 -NTEG^12-NH^2 (cyclo 6-12) (H-RGD[dF]RCF[dW]KTF[N(2-mercaptoethyl)Gly]-NH2; disulfide 6-12; SMILES C[C@@H](O)[C@@H]1NC(=O)[C@H](CCCCN)NC(=O)[C@@H](Cc2c[nH]c3ccccc23)NC(=O)[C@H](Cc2ccccc2)NC(=O)[C@@H](NC(=O)[C@H](CCCNC(=N)N)NC(=O)[C@@H](Cc2ccccc2)NC(=O)[C@H](CC(=O)O)NC(=O)CNC(=O)[C@@H](N)CCCNC(=N)N)CSSCCN(CC(N)=O)C(=O)[C@H](Cc2ccccc2)NC1=O) [SEQ ID NO: 13]”, the “% displacement of [^125I] Tyr^11-SRIF-14” value in the assay with hSSTR-4 (at 1 nM (in brackets)) is listed as 0(0) %; with hSSTR-4 (at 10 nM), 0(0) %; with SSTR5 (at 1 nM (in brackets)), 0%; in the assay with SSTR5 (at 10 nM), 4%; with SSTR1 (at 1 nM (in brackets)), 9%; with SSTR1 (at 10 nM), 15%. Further, the “% displacement of [^125I] Tyr^11-SRIF-14” value with SSTR2 (at 1 nM (in brackets)) is reported as 0%; in the assay with SSTR2 (at 10 nM), 12%; with SSTR3 (at 1 nM (in brackets)) it was 36%; in the assay with SSTR3 (at 10 nM), 78%. Moreover, the “affinity and selectivity to SSTR3 (in words)” value in the assay with SSTR3 (binding data) was “did not interfere with the affinity and selectivity of SEQ ID NO: 3 to SSTR3”.
For the substance “DOTA-Phe^1-D-Phe^2-Arg^3-(Cys^4-Phe^5-D-Trp^6-Lys^7-Thr^8-Phe^9-NTEG^10)-NH2 (cyclo 4-10) ({DOTA}-F[dF]RCF[dW]KTF[N(2-mercaptoethyl)Gly]-NH2; disulfide 4-10; SMILES C[C@@H](O)[C@@H]1NC(=O)[C@H](CCCCN)NC(=O)[C@@H](Cc2c[nH]c3ccccc23)NC(=O)[C@H](Cc2ccccc2)NC(=O)[C@@H](NC(=O)[C@H](CCCNC(=N)N)NC(=O)[C@@H](Cc2ccccc2)NC(=O)[C@H](Cc2ccccc2)NC(=O)CN2CCN(CC(=O)O)CCN(CC(=O)O)CCN(CC(=O)O)CC2)CSSCCN(CC(N)=O)C(=O)[C@H](Cc2ccccc2)NC1=O) [SEQ ID NO: 20]”, the “% displacement of [^125I] Tyr^11-SRIF-14” value is 0(0) % with hSSTR-4 (at 1 nM (in brackets)); 0(0) % in the assay with hSSTR-4 (at 10 nM); 0(0) % in the assay with SSTR5 (at 1 nM (in brackets)); 0(0) % with SSTR5 (at 10 nM); 8% with SSTR1 (at 1 nM (in brackets)); 14% with SSTR1 (at 10 nM). Besides, the “% displacement of [^125I] Tyr^11-SRIF-14” value with SSTR2 (at 1 nM (in brackets)) was 0%; in the assay with SSTR2 (at 10 nM) it was 2%; with SSTR3 (at 1 nM (in brackets)), 66%; with SSTR3 (at 10 nM) it was 95%.
For the substance “DOTA-Gly^1-D-Phe^2-Arg^3-Cys^4-Phe^5-D-Trp^6-Lys^7-Thr^8-Phe^9-NTEG^10-NH2 (cyclo 4-10) ({DOTA}-G[dF]RCF[dW]KTF[N(2-mercaptoethyl)Gly]-NH2; disulfide 4-10; SMILES C[C@@H](O)[C@@H]1NC(=O)[C@H](CCCCN)NC(=O)[C@@H](Cc2c[nH]c3ccccc23)NC(=O)[C@H](Cc2ccccc2)NC(=O)[C@@H](NC(=O)[C@H](CCCNC(=N)N)NC(=O)[C@@H](Cc2ccccc2)NC(=O)CNC(=O)CN2CCN(CC(=O)O)CCN(CC(=O)O)CCN(CC(=O)O)CC2)CSSCCN(CC(N)=O)C(=O)[C@H](Cc2ccccc2)NC1=O) [SEQ ID NO: 11]”, the “% displacement of [^125I] Tyr^11-SRIF-14” value is given as 0(0) % with hSSTR-4 (at 1 nM (in brackets)); 0(0) % with hSSTR-4 (at 10 nM); 0(0) % in the assay with SSTR5 (at 1 nM (in brackets)); 0(0) % with SSTR5 (at 10 nM); 2% in the assay with SSTR1 (at 1 nM (in brackets)); 19% with SSTR1 (at 10 nM). Also, the “% displacement of [^125I] Tyr^11-SRIF-14” value in the assay with SSTR2 (at 1 nM (in brackets)) was 0(0) %; with SSTR2 (at 10 nM) it was 0(0) %; in the assay with SSTR3 (at 1 nM (in brackets)) it was 47%; in the assay with SSTR3 (at 10 nM), 88%.

(Values after patent US20240165282A1, “CONFORMATIONAL CONSTRAINED SOMATOSTATIN RECEPTOR 3 PEPTIDE LIGANDS AND THEIR CONJUGATES AND USES THEREOF” (STARGET PHARMA LTD., priority 2021, published 2024).)
